Reference: patent publication US20130203680A1, “FOLATE CONJUGATES FOR TREATING INFLAMMATION OF THE EYE” (ENDOCYTE, INC., priority 2010, published 2013)

Tests used:
[1] = Plasma pharmacokinetics of EC0565 after a single intravenous or subcutaneous dose; conditions: for Tmax: sc
Protocol: The bioavailability of EC0565 after subcutaneous injection was measured. Female Lewis rats with rounded tip jugular vein catheters (Harlan) were fed regular rodent diet. The treated animals were given a single intravenous or subcutaneous dose of EC0565 at 2 μmmol/kg. […] For subcutaneous administration FIG. 18b, whole blood samples (300 μl) were collected from the animals at 1 min, 10 min, 30 min, 1 h, 2 h, 3 h, 4 h, 8 h, and 12 h post injection. The blood samples were placed into anti-coagulant tubes containing 1.7 mg/mL of K3-EDTA and 0.35 mg/mL of N-maleoyl-beta-alanine (0.35 mg/mL). Plasma samples were obtained by centrifugation for 3 min at ˜2,000 g and stored at −80° C. The amount of EC0565 and its released base drug (everolimus) were determined by HPLC using the EC0565 injection solution as the standard.

[2] = tested on: Proliferating Cell Nuclear Antigen (PCNA); test: Western blot of PCNA in synchronized RAW264.7 cells; assay type: cell-based, murine; conditions: 1-1000 nM; EC0565 2 h treatment, 48-h chase; everolimus 48 h
Protocol: To study anti-proliferative effect of EC0565, FR-positive murine macrophage-like RAW264.7 cells (serum deprived for 36 h for synchonization) were given a 2 h treatment of EC0565 (1, 10, 100, and 1000 nM) without or with 1000× excess of EC17 (as a folate competitor) followed by a 48-h chase in drug-free medium. For comparison, the cells were also treated for 48 h with everolimus (1, 10, 100, and 1000 nM). […] Western blot analysis was carried out on whole cell lysates using a monoclonal antibody specific for PCNA (PC10, Cell Signaling, Danvers, Mass.). After incubation with a peroxidase-conjugated secondary antibody, the signals were visualized using SuperSignal West Pico Chemiluminescent Substrate system (ThermoScientific, Waltham, Mass.) following the manufacturer's instructions. The images were acquired using a G:BOX Chemi HR 16 gel imaging system (Syngene, Frederick, Md.).

[3] = cited from earlier work
[4] = rats; cited from earlier work
physchem = conditions: pH 7.4
[5] = female, Lewis, rat, in vivo, 2 μmmol/kg

SMILES	Tmax ([1]; female, Lewis, rat, in vivo) [h]	effect on PCNA activities [2]	water solubility [3] [µM]	oral bioavailability [4] [%]	bioavailability [1, 5] [%]	Tmax [1, 5] [h]	free drug (everolimus) exposure/release in plasma, based on AUC ([1]; single intravenous dose of EC0565 at 2 μmmol/kg)	free drug (everolimus) exposure/release in plasma, based on AUC ([1]; single subcutaneous dose of EC0565 at 2 μmmol/kg) [%]	solubility (physchem) [µM]
CO[C@H]1C[C@@H]2CC[C@@H](C)[C@@](O)(O2)C(=O)C(=O)N2CCCC[C@H]2C(=O)O[C@H]([C@H](C)C[C@@H]2CC[C@@H](OCCO)[C@H](OC)C2)CC(=O)[C@H](C)/C=C(\C)[C@@H](O)[C@@H](OC)C(=O)[C@H](C)C[C@H](C)/C=C/C=C/C=C/1C [everolimus]	~1	inhibited PCNA activities	1 to 10	~12					
CO[C@H]1C[C@@H]2CC[C@@H](C)[C@@](O)(O2)C(=O)C(=O)N2CCCC[C@H]2C(=O)O[C@H]([C@H](C)C[C@@H]2CC[C@@H](OCCOC(=O)OCCSSC[C@H](NC(=O)[C@H](CCC(=O)NC[C@H](O)[C@@H](O)[C@H](O)[C@H](O)CO)NC(=O)[C@H](CCC(=O)O)NC(=O)[C@H](CCC(=O)NC[C@H](O)[C@@H](O)[C@H](O)[C@H](O)CO)NC(=O)[C@H](CCC(=O)O)NC(=O)[C@H](CCC(=O)NC[C@H](O)[C@@H](O)[C@H](O)[C@H](O)CO)NC(=O)CC[C@H](NC(=O)c3ccc(NCc4cnc5nc(N)[nH]c(=O)c5n4)cc3)C(=O)O)C(=O)O)[C@H](OC)C2)CC(=O)[C@H](C)/C=C(\C)[C@@H](O)[C@@H](OC)C(=O)[C@H](C)C[C@H](C)/C=C/C=C/C=C/1C [EC0565]					~128	~1	approximately 18%	~17	> 1000
